A protein production outcome set (Wang et al. 2014)

Assay: label from the status in PepcDB records

Sequence | protein production
PETVCWGHVEEVELINDGSGLGFGIVGGKTSGVVVRTIVPGGLADRDGRLQTGDHILKIGGTNVQGMTSEQVAQVLRNCGNSVRMLVARDPAGDISVT | not failed
PFKAGKARGLTTEQLNTRLDIDEFETGLMRLAQDSFSTDDYLFQEGQYLDEDTVLSWLARKKTGSDLKKAEKEDKNFKNEGLNPALPSSGSTEEKNESSPIYLASMLEHDYLVRKDKNSIQLGGVMIGLALNSVYYYREKTGDPQKEVEIKDSTLRQQGEKIAQEVINRLRKKDNLKNVPITVALYKQASKTSIVPGNFIAKTEVKAGSTDISNWDDINEKYVFYPADTTTAEKYPDDTEVFKRFKNSIEEYFPNYTGVVGTALYENDEMKKMKIDIPMQFYGKSEVVAFTQFLTGEVMDYYSKSSVDVEVNITSSDGQEAVIIRNAGDKEPTVHIYD | failed
PGVELRTAADFADDPRPLFELDAETSGDEPGDVDHEFTDYEAWLEETWRHPLLSHELTSVALVDGRPAAFSAARTDGATRYHTGMTGTARAFRGRGLAKLAKNDSLHRARAAGFTEAFTGNDAGNEPMLAINKWFGYEICATEVRYVRELG | failed
PIKMGWLKKQRSIVKNWQQRYFVLRAQQLYYYKDEEDTKPQGCMYLPGCTIKEIATNPEEAGKFVFEIIPASWDQNRMGQDSYVLMASSQAEMEEWVKFLRRVAG | not failed
PITFWYGKYIILIPSSYFKSVIDKRLKYIILHEYAHAKNRDTLHLIIFNIFSIIMSYNPLVHIVKRKIIHDNEVEADRFVLNNINKNEFKTYAESIM | failed
PKKIMLVAGHGYNDPGAVGNGTNERDFIRKYITPNIAKYLRHAGHEVALYGGSSQSQDMYQDTAYGVNVGNKKDYGLYWVKSQGYDIVLEIHLDAAGESASGGHVIISSQFNADTIDKSIQDVIKNNLGQIRGVTPRNDLLNVNVSAEININYRLSELGFITNKNDMDWIKKNYDLYSKLIAGAIHGK | failed
PLKEQKVINTANIKTNSKLDLAEYENGLINIATQQFDTESHVLQLNQYIPEKLIDELVAKVEAPVLTNIIEQDYFGKQNSNELSLSGVMIGLAMSSSVSNEEAMSKGTEVAKQLIEAINKNDKYNKSPITFAIFKQESTSSLKNGTYIASATVQKNDTNLGNWSTIDEKSYSYPSDEFTQAHGEDNTKINNFAKEIKGFSNGDFIPVNAKVSYKKDQMDTLNMNIVIKYNGKTELMALTQLAAQGMLDKLPKDAKVQLQIKSESKIEAVIIKEKNSDKPFVSFL | not failed
PRLLCTATKQKNSGQNLEEDMGQSEQKADPPATEKTLLEEKVKLEEQLKETVEKYKRALADTENLRQRSQKLVEEAKLYGIQAFCKDLLEVADVLEKATQCVPKEEIKDDNPHLKNLYEGLVMTEVQIQKVFTKHGLLKLNPVGAKFDPYEHEALFHTPVEGKEPGTVALVSKVGYKLHGRTLRPALVGVVKEA | failed
PSARDILQQGLDRLGSPEDLASRIDSTLLSPRATEEDVRNLVREASDYGFRCAVLTPVYTVKISGLAEKLGVKLCSVIGFPLGQAPLEVKLVEAQTVLEAGATELDVVPHLSLGPEAVYREVSGIVKLAKSYGAVVKVILEAPLWDDKTLSLLVDSSRRAGADIVKTSTGVYTKGGDPVTVFRLASLAKPLGMGVKASGGIRSGIDAVLAVGAGADIIGTSSAVKVLESFKSLV | not failed
PSEAPERVMVPIANPKTVESLLDLAFIVRGQSSEPLYPLTVAQGTNGDAESEVAKAEKVLAHAVTYAAGASVPIQMLTRLDPNIASGIIRAIEETRITTLVIGWNGKRSTPQLIFGGILDQLLERTEEMVLVSK | failed
PSEPVTDEYLTSVTIGERKPLNDRIQLAEYDLRWPSMFSVAADKIRSALSEKALLVEHVGSTSVPGLAAKLIIDMLLGVTDSADEKSYVLPLEQQGFVLQAREPGWYEHRFFRLKSGDMEWHLHVFSAECEEIDRMLAFRNWLRVHDDDRQRYENVKRTLAARTWKHMQNYADAKSDIVREILGRA | failed
PTNIHKIHEVQKKLQEEVSIVLIDIADIIVNPKKENGYSRDLYTLNSLIDSSISETYDNINNTLLSDTRFFLEHMDIIKSQRDILENLYSYVSQLNSTPPQAHILSAFIHKIGYTEFEAETGNLLLEELKRLMISMKNQPLPVDRTEFENRAILFLCLTELKQFLVNRKHAQML | not failed
PVAGPYITFTDAVNETTIMLKWMYIPASNNNTPIHGFYIYYRPTDSDNDSDYKKDMVEGDRYWHSISHLQPETSYDIKMQCFNEGGESEFSNVMICETKAR | not failed
PVRLEGDQVAAAEALVAAVAADSYSTTLLKGVTGSGKTEVYLEAVAECLRRGRQALVLLPEIALTSEFLARVEARFGARPAEWHSGVTATERRRLWRMVSEGQAQFVAGARSALFLPFRDLGLVVVDEEHDTSYKQEEGALYNARDMAVLRASICGCPAVLASATP | failed
QAAPSQVVVIRQERAGQTSVSLLWQEPEQPNGIILEYEIKYYEKDKEMQSYSTLKAVTTRATVSGLKPGTRYVFQVRARTSAGCGRFSQAMEVETGKP | not failed
QDHYKVLGLSKLRWQATSDEIRFCYRQKVLKHHPDKKKHRGIVMEKEEYFTCITKAYEQVGMSDVK | failed
QERLKITALPLYFEGFLLIKRSGYREYEHYWTELRGTTLFFYTDKKSIIYVDKLDIVDLTCLTEQNSTEKNCAKFTLVLPKEEVQLKTENTESGEEWRGFILTVTELSVPQNVSLLPGQVIKLHEVLEREKKRRIE | not failed
QGLLRAIPSITEDMPRLPTIPGNPPSALINHQGCPFRDRCDYRLARCQAETPKFMPLNGRQSIACHVKAQSSISLIHQSA | failed
QHTLKQFAADSALTTTTPLCSEVPLFDINALGDWTYLGTSLPAKFAKLFASILHCIDDEYFLITPVEKVRVQVEDAPLLIVDFERAQPHSLLNVSTSIGTLHHNVDIKQMKLTDDSVYLPLERGLWGKLGRACYYNFVNEFNLSDLNEQ | not failed

Sequence | protein production
QIRMIAAIAHMGGHDLKDDRVKAMVYACLTGNAAKDILKDIGIVVGRKLTENAIKSISGKTITKINQAVGFRLLTKFGEKG | failed
QKGWFPASHVKLLGPSSERATPAFHPVCQVIAMYDYAANNEDELSFSKGQLINVMNKDDPDWWQGEINGVTGLFPSNYVKMTTDS | not failed
QKSVRVGISFDISEQKEGEALFEIISQNVTDVIWVYDLKLNRFRYISPSVEAMRGLPKEEAEAMSLEETLTPSSYQRAMQILEGERLRLSNPSHREIKIFSEFFDQYTHDGEVIETEVTARVVQDEG | failed
QKVEFRKRMEKEVSDFIQDSGQIKKKFQPMNKIERSILHDVVEVAGLTSFSFGEDDDCRYVMIFKKEFAPSDEELDSYRRG | not failed
QLTVRRVAEHDLAALSEKAGGPVSIGTRDRLQVVYVDTIHDRGNNGAKPDIGSSRPLLHTAMGRALLYTFDAAERELLMPLLLEQEPQQGDAARAALEEAFAQIARTGFCTSYGSWRPELAGLAAPLRYRAGDLPFAINLTLPIDAVKDGRAEQEFGPYLARLAQSIDRRLGVDV | failed
QNHFHVFVGDLSPQITTEDIKAAFAPFGRISDARVVKDMATGKSKGYGFVSFFNKWDAENAIQQMGGQWLGGRQIRTNWATRKPPAPKSTYES | failed
QSNQAWFGNDAFFNAVCFNEAVAKQLNLPKPTSWEDLTKPVYKGHIVMPNPASSGTGYMQVSAWLQNMGEDQAWNYMRDLDKNIAHYTHSGSKPCVQAGMGEVAIGISMASRGAKLKTQGAPLAVITPKGIGWESEAVGLVKESDAAKRVVDWSISKAANELYVEMYPVVGH | failed
QSYSGGIRLDTLFIDEGFGSLDPESLDLAIQTLVDLQQTGRMIGVISHVSELKEQMALRIDVEPSRFGSTVSVKSQMLISK | failed
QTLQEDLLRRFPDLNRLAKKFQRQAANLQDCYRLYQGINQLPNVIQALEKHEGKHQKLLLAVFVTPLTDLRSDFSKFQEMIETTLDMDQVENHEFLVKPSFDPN | failed
QVSDEDVMLMIRQGAKKGVFESVEYEMISRIFRMSDKRASALMTPRNEIEWLDLERPDEELVARIKASGRSRFPVAKGSLDELQGVVRSLDLVNFSLSSKGSIREAIRASMKPPLFVPESVPAFHVLELFKKNRAHMALVIDEHGSVQGAITLTDVLESIVGDVPADDMEGD | failed
QYRLRQLPEVSGAMVVMDPLTGRVLAMVGGFSFDQSQFNRATQAYRQPGSSFKPLVYSAAMDNGYTPSTVVIDAPIEIDQGQGVGVWRPENYSTGKYYGPTTLRNALQRSLNTVTVRLAQDIGMPLIGEYAKRFGVYDDLPNYLSYALGAGETTVMRMVTAYSMFANGGRRVKATLIDRIQDRYGHTIFKHDQRECRGCEAPNGWKNQPEPQLVDRREQVLDPMTAYQITSMMEGVVQAGTATVLREVGKPIAGKTGTTNDEKDAWFIGFSPDLVCGVYIGYDKPRNLGRGATGGHLAAPIAKDFFKLALAEKPAVPF | failed
RAAAALAAGALALSLTACGGDEDNGGGDGGDEGGGAKQPASSVTLPKLDGESLEVAAVWTGTEQENFKKVLAEFEKRTGAKVTFVPAQDPIINFLGSKIAGGAPPDVAMLPQPGAIKQAVDKGWAKPLGAEATKELGENYSQGWQDIGKVGGKQYGVYYKAANKSLIWYNAQVFENAGAAEPKTWDELLNAAQMVYDSGVTPFSVGGADGWTLTDWFENVYLSQAGPEKYDQLAKHEIKWTDPSVKDALTTLAEIWGKKDFVAGGASGALQTEFPASVTQTFTGGDQPKAGMVYEGDFVQVNIGETKAKVGTDAKVFPFPAVGDTAPVVSGGDAAVVFKDSKAAQALATWLASPDAAGIQAKLGGFLSPNKSIDSSVYPNEVQKKIAEALVAAGDDFRFDMSDQAPQAFGGTPGKGEWKTLQDFLKNPKDVAGAQAKLEADAAAAYG | failed
RAKAFIDAANQYSINELYLISHALLETGNGTSALANGLTYNGKTVYNMYGIGAYDSNPNYYGAKYAYEQGWFTPEAAIIGGAKFIGSSYIHNTAYNQDTLYKMRWSATATHQYATDIGWAYKQVNRMYSLYSLLDG | not failed
RATPSGMLRINASVQAGRAVAPLVLAFLRRYPEMRVDLVTEGRLLDIVAEGFDMGIRPADLVPRDMIALPLGLPVRHAVVASPDWLVRHPEPRSPADLDPDACLRVRLPNGALLRWPFQKDGVPLPFEASGRLTVDEAAIAR | failed
RDEVAGILRLGLSQSFGTMHIIPAIDKLRNQYPDLQVEVRLFDHQADMLKDGLDLWVTNFEDLPEGYVAQRLADSNFVLAASPDYLIDKKVPHHPLDLVEHNCLTYQ | failed
REVPRCLADLGNGSVHGYRAGRVLSDSGPTGRVGEELMRSFASFFVRTASVPVAELPARPEGWPRDGDTQGFLDWLVHFTERRVHRPNRDRFGALFDAVGVPEDAMARFAAGHRCRAVRPFRLLHTDVHRANVVVRGRRLAVIDWELAILGDPLHDLATHLVRMAYGKEEQGRMVDLWAEAMADAGFTDLTAGLHEDLPVYVAFEYAQSVFPDVMRAAIDLPQ | failed
RFHNDGEALLAAFLAGDLAGIGAMTPEPAALEPARRLRRFYVRPDMRRRGVATALASALIHEGFDSVRLLTVNARAADAAAPFWEAQGFEPDTIGPWTH | failed
RHDFSDQTAMLELFSQLFGPYPFDQYSVVVTEDDLEIPLEAQGLSIFGANHAGGTKQWERLIAHELAHQWFGNSLGLAQWDDIWLNEGFACYAE | failed
RHQVESSPLFRALALRCNQTMVTLRSANMFHAYGFLAKVFEILAKHKISVDLITTSEISVSLTLDQTDTSGGAPQLPQAAREELEELCKVEVEHDLCLVALIGNKMSERKGYAKQVFGTLEDLNLRMICYGASPHNLCFLVNESVAKQAIQKLHTELFEQ | not failed
